Results published in the DeepSol protein solubility set.

Test: soluble on expression in E. coli; label from the status in PepcDB or PDB records

| Sequence | soluble on expression in E. coli |
| --- | --- |
| MGHHHHHHGGHMSLDEFDLIHSITPRTIHHSSVDVGIGDDAALYTAKHGVQEIVCVDTMVEDVHFKLHYSSPEDIGYKALAVNISDIAAMGGIPKFYLVSLAVPSKWTESEIKAMYEGMNELAKLYHMDLIGGDTVSTADKLVVTVTVIGEIEKGQACLRSLAKPNDIVFVTGEIGSSAAGLSLLLEETNPQNSSVETDYFIHRHKRPEPRVSVGRLCSIFKRAALNDVSDGLASELNEIAEASCVSIEIVESMLPIHSDLPKLHPNWKEWALFGGEDFELTGTVSNEEWEVLKQECAALHLPITKIGYVREKTKSKVILKTDQTSMILEKKGYNHFEGGS | soluble |
| MESKVVVPAQGKKITLQNGKLNVPENPIIPYIEGDGIGVDVTPAMLKVVDAAVEKAYKGERKISWMEIYTGEKSTQVYGQDVWLPAETLDLIREYRVAIKGPLTTPVGGGIRSLNVALRQELDLYICLRPVRYYQGTPSPVKHPELTDMVIFRENSEDIYAGIEWKADSADAEKVIKFLREEMGVKKIRFPEHCGIGIKPCSEEGTKRLVRAAIEYAIANDRDSVTLVHKGNIMKFTEGAFKDWGYQLAREEFGGELIDGGPWLKVKNPNTGKEIVIKDVIADAFLQQILLRPAEYDVIACMNLNGDYISDALAAQVGGIGIAPGANIGDECALFEATHGTAPAYAGQDKVNPGSIILSAEMMLRHMGWTEAADLIVKGMEGAINAKTVTYDFERLMDGAKLLKCSEFGDAIIENM | soluble |
| MNITVPKKLLSDQLSLLERIVPSRSANPLYTYLGLYAEEGALILFGTNGEVDLEVRLPAEAQSLPRVLVPAQPFFQLVRSLPGDLVALGLASEPGQGGQLELSSGRFRTRLSLAPAEGYPELLVPEGEDKGAFPLRTRMPSGELVKALTHVRYAASNEEYRAIFRGVQLEFSPQGFRAVASDGYRLALYDLPLPQGFQAKAVVPARSVDEMVRVLKGADGAEADLALGEGVLALALEGGSGVRMALRLMEGEFPDYQRVIPQEFALKVQVEGEALREAVRRVSVLSDRQNHRVDLLLEEGRILLSAEGDYGKGQEEVPAQVEGPGMAVAYNARYLLEALAPVGDRAHLGISGPTSPSLIWGDGEGYRAVVVPLRV | soluble |
| TAWILMVPIALLYVKNWEEECCKQKKEEFREQFRESIQTLSAILKVGYSVENAIRETWKEICPIYKKKTRIIKEYETMVHQLDLNMTAEEVMKQFADRVKEEDVENFVTVFGAAKRLGGDSIAIIRHAADAIGEKMEVEREIQVMLTSKKLEFKIMCVIPFVIILYMRSAFPEFM | not soluble |
| MKPVKVGICGLGTVGGGTFNVLERNAEEIARRAGRGIEVAQIAARRPNPKCDTGATPITADIFDVACNPEIDVVVELIGGYTLAHELVLKAIENGKHVVTANKALIAVHGNEIFAKAREKGVIVAFEAAVAGGIPVIKAIREGLSANRINWLAGIINGTGNFILSEMREKGRTFPDVLAEAQALGYAEADPTFDVEGIDAAHKLTILASIAFGIPLQFDKAYTEGISKLTSADVNYADALGYRIKHLGVARRTESGFELRVHPTLIPSDRLIANVNGVMNAVMVNGDAVGSTLYYGAGAGMEPTASSVVADLVDVVRAMTSDPENRVPHLAFQPDALSDHPILPIEACESAYYLRIQAKDHPGVLAQVATILSERGINIESIMQKEAEEQDGLVPMILVTHRVIEQRINDAIAALEALEGVSGPVVRIRVEQL | soluble |
| SLSHGKGTDMLPEIAAAVGFLSSLLRTRGCVSEQRLKVFSGALQEALTEHYKHHWFPEKPSKGSGYRCIRINHKMDPIISRVASQIGLSQPQLHQLLPSELTLWVDPYEVSYRIGEDGSICVLYEEAPLAASCGEG | soluble |
| MGSDKIHHHHHHMKIEGLFNKYYNSFTANDKYICECILNHKEDCIKLSIDEFADKYHISTSALSRFAQKLQLPGYSELRVIIRLNETEVEYKNQSKHQLMDCYNKVIDDIEKKDCSIMFERMKKANRIIVFGEGYSQERVAKEMKRIFLPTGKIIYDVYGYDMIQALNHFIKTDDMIFFISLNGDASTIIDFAKEMRMKGIYMVSITKMISNPLARLCDENLYIQSISISVDKQLDYDVTTPYFILIELLYIKYKMYLESEHIPRK | not soluble |
| MGSDKIHHHHHHMKILILRFSSIGDIVLTTPVIRCLKKQIPNAEIHFATKASFKSILENNPYIDKLHLLESSTASFIKQLKAERFDVVIDLHSNIRTKRIKWALKAKSFTFDKLNIRKWFYVNWKWKTMPAIHIVDRYLDTVKHLGVKNDNEGLDYFIPEKDIISRDSLPQKYAAGYVAIAIGAQHATKRLPEAKLIELIGKISHPIILLGGKDDTATAARLVAYFPDTKNILNACGTYNLNQSASIVHQCMYLYTHDTGLMHIGAALQKRIISIWGNTTPELGMYAYKTEHVNWQKEDLYCRPCSKIGYNSCPKKHFRCMNEQVLPVHEIESRWN | not soluble |
| MATQGAWLRMTSSAKSMTKSTVTSKELGFLTSQLSGLRISYTPSDVINRISLPSFPGIQPIVARRICPFTGKKANRANKVSFSNHKTKKLQFVNLQYKRVWWEAGKRFVKLRLSTKALKTIEKNGLDAVAKKAGIDLRKKLEHHHHHH | not soluble |
| ARVLVVGDVMLDRYWFGEVDRISPEAPVPVVRVARREDRLGGAANVARNVAALGAQVTLIGVVGADEVGLRIERMAAEEGVRTDLVSDTEHPTTLKMRVLGRQQQLLRVDFEQHPEPAALDGISAAVARQLAQHDIVVLSDYAKGVLDRVESIIAAAVGHSLPVLVDPKGDHYERYRGATLVTPNRAEMREAVGRWKTEDELAERAQRLRLDLDLEALLVTRSEQGMTLFTDAGRDHADAAAHEVYDVSGAGDTVLATLAVMRAVGLSWGDAMRWANRAGGIVVGKLGTSVVTAAEL | not soluble |
| PTEEWLRYVTTARAKSKVDTFLRRKRRELINRGEERVVSVIRTSESMVSAELLDRIAAYFGFLNRETFFYAVGTGTVSLPESFKKL | not soluble |
| MFQVKVRGCMTVYPKVQCISYKIDVDKPTVCELTLCLAPNSDVPADRFSNDLFLVVYNNEQKLVGLTRHVLEERKYSTGMMTVNEGDEVMIVGMGTTTNRKRSTTERVPLIEETNKLSKRFK | not soluble |
| MGPIKTIKKKKRAEKKVDRNVLLAATAAATSASAAAALNNNDDDDDSSSQSLDWWDGFSRRIYGGSTDPKTFESVFKISRKTFDYICSLVKADFTAKPANFSDSNGNPLSLNDRVAVALRRLGSGESLSVIGETFGMNQSTVSQITWRFVESMEERAIHHLSWPSKLDEIKSKFEKISGLPNCCGAIDITHIVMNLPAVEPSNKVWLDGEKNFSMTLQAVVDPDMRFLDVIAGWPGSLNDDVVLKNSGFYKLVEKGKRLNGEKLPLSERTELREYIVGDSGFPLLPWLLTPYQGKPTSLPQTEFNKRHSEATKAAQMALSKLKDRWRIINGVMWMPDRNRLPRIIFVCCLLHNIIIDMEDQTLDDQPLSQQHDMNYRQRSCKLADEASSVLRDELSDQLCGKNSSA | soluble |
| GPGSMSKQLTFISAGATAAVLQSASAIVSKVAGGRVQTKTAKEAGRHAVVVGPETPIGVHTAVTEAPKSAQDPLFSGVSTVVVRAVLPRAAPDSVQLRDALDVYASAGIDTKEEVRSATEAFKKSAEVAVGKAKAKGVKRIVLVVKQASKHNCINELFKKISTETIESAGLTTEVVGTASVANQLIVNPESLGVVLLNDVAATEQIELAFAGVVGGVSRVYHTVEGGKISAGHSFKSVALAVAQELRELGLSSEADKVEAAASKNPRAVVSAL | not soluble |
| MAHHHHHHMRYFRVLHNFDAQDGVELTVKKGETVFTAESEVREGWIKVEVLHDPRRRGFVPFNYLRETTESLAREQEEGSRGIGRESGGMSTASMTLQPSAVPRETSVTFTSGALDYGDRLQNMYGVGASAPSPVSQRSRSAEQGMKRVNENSMATATKGAVMEPLLPSQKVPSSPPSGADPVPERSLLNNPSAIVEAFMKNELHFKQLIRQRQDALAQMRTTVEEAMSELAACKEKNFTLARKLRELDQSVEKERGRWKERIMEEKAYISRSMSSE | soluble |
| MSLADWQEITGGITAPKGYRAAGITAGLKPSGLPDLALIVSDVEAIASGVFTTSQVKAACVDYCRQRLQAKQSARAILCNAGQANAATGSQGIKDAEESAELLAKELNISPELILLASTGVIGQRIKMDALRNGIPKLIASLTDTGSDAAAGAIITTDLVTKSIALETTIGDRPVRIGGIAKGSGMIHPNMATMLAFVTCDAAVSSHLWQQMLTRAADRSFNSITVDGDTSTNDSLIALANGQSRTPAITEVGAESEKLEAMLTAVCQHLAKAIARDGEGATCLIEVQVTGAHDEQAARQIAKTIAGSSLVKSAIFGRDPNWGRIAAAAGRAGVPFEQENLQIQLGDFLLLDNGQPLPFDRAAASAYLKQAATGAYLQQDTVLISVKVGNGHGTGKAWGCDLSYDYVKINAEYTTEGHHHHHH | soluble |
| GPLGSQELRLRVQGKEKHQMLEISLSPDSPLKVLMSHYEEAMGLSGHKLSFFFDGTKLSGKELPADLGLESGDLIEVWG | soluble |
| MGHHHHHHSHRNLDSRTFITIGDRNFEVEADDLVTISELGRGAYGVVEKVRHAQSGTIMAVKRIRATVNSQEQKRLLMDLDINMRTVDCFYTVTFYGALFREGDVWICMELMDTSLDKFYRKVLDKNMTIPEDILGEIAVSIVRALEHLHSKLSVIHRDVKPSNVLINKEGHVKMCDFGISGYLVDSVAKTMDAGCKPYMAPERINPELNQKGYNVKSDVWSLGITMIEMAILRFPYESWGTPFQQLKQVVEEPSPQLPADRFSPEFVDFTAQCLRKNPAERMSYLELMEHPFF | soluble |
| MGSDKIHHHHHHMSLLSVSDVGKAYKTYRSELQRIAHWFFLPTKASSEHWVLKHINFAIEPGEAIGIIGQNGAGKSTLLKMITGTLQPTQGRVQVNGRIAAILELGMGFNPELSGRQNVYHAAGLMGFDVQQINDVIDDIEAFAEIGEYFDEAVRTYSSGMQMRVAFAVATAFRPEILIVDEALSVGDSYFQHKSFERIREFQRLGTSLLIVSHDRGAIQSLCSRALLLENGSIIKDGPPEQVMDYYNALIAEKENSTVQVKQLADGTVQTQSGSGEATIGTVALYDMQGTPVEFVAVGDKVTLSVQVEVHAPIPELVVGYVIKDRLGQHVFGTNTHHLGKAQKALETGEKLEYRFDFEMNLGPGSYSVAVALHANEVHIGSNYEWRDLALVFNVVNTSKPQFVGMAWVPTAVECIR | not soluble |
| MTVRSRFFTEAEGKAVGVENAAAKGDVLLVCEHASATIPQKYGTLGLSADVLSSHAAWDPGALAVARLLSEKFHATLVYQRFSRLVYDCNRPPESPSAMPVKSEIYDIPGNFDLDEAERFARTSALYVPFHDRVSEIIAERQAAGRKVVVVTIHSFTPVYHGRFREVEIGILHDNDSRLADAMLAGAEGASLTVRRNDPYGPEDGVTHTLRLHALPDGLLNVMIEIRNDLIANEGEQAAIAGFLHELMGKALSSIEE | soluble |
| MDDQIKQIAERLRGLRDVLELTAEDIARDCEISAEEYRLAETGDYDISVSMLQKIARKYGIALDALMFGEEPKMSSYFLTRAGKGTSIERTKAYKYQSLAAGFMNRNADPFIVTVEPKPDIEPIHYNSHSGQEFNLVLEGRMMISIDGKDLILNEGDSLYFNSKLPHGMKALDGKTVRFLAVIM | not soluble |
| GMEPTRKRKSAGGKPKGKGGWGDRKSGGWRGDHKPSKEGFGGKTRGEGFKKEGFKRDGFKKTGEGFKGKRKAGDSFAGKGERRYKDR | not soluble |
| MEDMYDSFAALSASESEYRIIYEEKNGSELIVLGPHGGRIEPGVSELVRAFSDRCSIYLFEGLKQRNNRSLHLTSIRFDEPLALEKVNDHHYALAFHGYYDPKIPHTLVGGADRKKAKLICERLNEAGFSAELTNEKDRLAGVHPNNIVNRTKREMGLQLEVSTAQRNALFRNFGCRDKSYIQNDLFDRYVEAVKLGFYTLEHHHHHH | soluble |
